B1: HI076-L2-3 (antibody, human IgG1, kappa)
heavy 1: QDQLVQSGAEVKKPGASVKVSCKASGFNIKDTYIQWVRQAPGQGLEWMGRIDPLRKQTKYREKFEGRVTITADTSTNTAYMELSSLRSEDTAVYYCVRSGREFDYWGQGTLVTVSSASTKGPSVFPLAPSSKSTSGGTAALGCLVKDYFPEPVTVSWNSGALTSGVHTFPAVLQSSGLYSLSSVVTVPSSSLGTQTYICNVNHKPSNTKVDKKVEPKSCDKTHTCPPCPAPELLGGPSVFLFPPKPKDTLMISRTPEVTCVVVDVSHGGSEEPEVKFNWYVDGVEVHNAKTKPREEQYNSTYRVVSVLTVLHQDWLNGKEYKCKVSNDALPMPIEETISKAKGQPREPQVYTLPPSRCELTKNQVSLSCAVKGFYPSDIAVEWESNGQPENNYKTTPPVLDSDGSFFLVSKLTVDKSRWQQGNVFSCSVMHEALHNHYTQKSLSLSP
heavy 2: QDQLVQSGAEVKKPGASVKVSCKASGFNIKDTYIQWVRQAPGQGLEWMGRIDPLRKQTKYREKFEGRVTITADTSTNTAYMELSSLRSEDTAVYYCVRSGREFDYWGQGTLVTVSSASTKGPSVFPLAPSSKSTSGGTAALGCLVKDYFPEPVTVSWNSGALTSGVHTFPAVLQSSGLYSLSSVVTVPSSSLGTQTYICNVNHKPSNTKVDKKVEPKSCDKTHTCPPCPAPEYQWGPMVFLFPPKPKDTLMISRTPEVTCVVVDVSDEEPEVKFNWYVDGVEVHNAKTKPREEQYNATYRVVSVLTVLHQDWLNGKEYKCKVSNKALPAPIEKTISKAKGQPREPQVCTLPPSRDELTKNQVSLWCLVKGFYPSDIAVEWESNGQPENNYKTTPPVLDSDGSFFLYSKLTVDKSRWQQGNVFSCSVMHEALHNHYTQKSLSLSP
light: DIQMTQSPSSLSASVGDRVTITCRASQDIHKYIAWYQQKPGQAPRLLIQYTSTLQPGVPSRFSGSGSGTDYTFTISSLQPEDIATYYCLQYEQLRTFGGGTKVEIKRTVAAPSVFIFPPSDEQLKSGTASVVCLLNNFYPREAKVQWKVDNALQSGNSQESVTEQDSKDSTYSLSSTLTLSKADYEKHKVYACEVTHQGLSSPVTKSFNRGEC
notes: heterodimerized anti-EREG antibody: altered H240-Hl076 chain (Gly/Ser peptide in loop) with H240-Kn125 and L73-k0; also called Hl076-L2-3
B2: HI076-L2-9 (antibody, human IgG1, kappa)
heavy 1: QDQLVQSGAEVKKPGASVKVSCKASGFNIKDTYIQWVRQAPGQGLEWMGRIDPLRKQTKYREKFEGRVTITADTSTNTAYMELSSLRSEDTAVYYCVRSGREFDYWGQGTLVTVSSASTKGPSVFPLAPSSKSTSGGTAALGCLVKDYFPEPVTVSWNSGALTSGVHTFPAVLQSSGLYSLSSVVTVPSSSLGTQTYICNVNHKPSNTKVDKKVEPKSCDKTHTCPPCPAPELLGGPSVFLFPPKPKDTLMISRTPEVTCVVVDVSHGGSGGSGGSEEPEVKFNWYVDGVEVHNAKTKPREEQYNSTYRVVSVLTVLHQDWLNGKEYKCKVSNDALPMPIEETISKAKGQPREPQVYTLPPSRCELTKNQVSLSCAVKGFYPSDIAVEWESNGQPENNYKTTPPVLDSDGSFFLVSKLTVDKSRWQQGNVFSCSVMHEALHNHYTQKSLSLSP
heavy 2: QDQLVQSGAEVKKPGASVKVSCKASGFNIKDTYIQWVRQAPGQGLEWMGRIDPLRKQTKYREKFEGRVTITADTSTNTAYMELSSLRSEDTAVYYCVRSGREFDYWGQGTLVTVSSASTKGPSVFPLAPSSKSTSGGTAALGCLVKDYFPEPVTVSWNSGALTSGVHTFPAVLQSSGLYSLSSVVTVPSSSLGTQTYICNVNHKPSNTKVDKKVEPKSCDKTHTCPPCPAPEYQWGPMVFLFPPKPKDTLMISRTPEVTCVVVDVSDEEPEVKFNWYVDGVEVHNAKTKPREEQYNATYRVVSVLTVLHQDWLNGKEYKCKVSNKALPAPIEKTISKAKGQPREPQVCTLPPSRDELTKNQVSLWCLVKGFYPSDIAVEWESNGQPENNYKTTPPVLDSDGSFFLYSKLTVDKSRWQQGNVFSCSVMHEALHNHYTQKSLSLSP
light: DIQMTQSPSSLSASVGDRVTITCRASQDIHKYIAWYQQKPGQAPRLLIQYTSTLQPGVPSRFSGSGSGTDYTFTISSLQPEDIATYYCLQYEQLRTFGGGTKVEIKRTVAAPSVFIFPPSDEQLKSGTASVVCLLNNFYPREAKVQWKVDNALQSGNSQESVTEQDSKDSTYSLSSTLTLSKADYEKHKVYACEVTHQGLSSPVTKSFNRGEC
notes: heterodimerized anti-EREG antibody: altered H240-Hl076 chain (Gly/Ser peptide in loop) with H240-Kn125 and L73-k0; also called Hl076-L2-9
B3: HI076-L3-3 (antibody, human IgG1, kappa)
heavy 1: QDQLVQSGAEVKKPGASVKVSCKASGFNIKDTYIQWVRQAPGQGLEWMGRIDPLRKQTKYREKFEGRVTITADTSTNTAYMELSSLRSEDTAVYYCVRSGREFDYWGQGTLVTVSSASTKGPSVFPLAPSSKSTSGGTAALGCLVKDYFPEPVTVSWNSGALTSGVHTFPAVLQSSGLYSLSSVVTVPSSSLGTQTYICNVNHKPSNTKVDKKVEPKSCDKTHTCPPCPAPELLGGPSVFLFPPKPKDTLMISRTPEVTCVVVDVSHEEPEVKFNWYVDGVEVHNAKTKPREEQYNSTGGSYRVVSVLTVLHQDWLNGKEYKCKVSNDALPMPIEETISKAKGQPREPQVYTLPPSRCELTKNQVSLSCAVKGFYPSDIAVEWESNGQPENNYKTTPPVLDSDGSFFLVSKLTVDKSRWQQGNVFSCSVMHEALHNHYTQKSLSLSP
heavy 2: QDQLVQSGAEVKKPGASVKVSCKASGFNIKDTYIQWVRQAPGQGLEWMGRIDPLRKQTKYREKFEGRVTITADTSTNTAYMELSSLRSEDTAVYYCVRSGREFDYWGQGTLVTVSSASTKGPSVFPLAPSSKSTSGGTAALGCLVKDYFPEPVTVSWNSGALTSGVHTFPAVLQSSGLYSLSSVVTVPSSSLGTQTYICNVNHKPSNTKVDKKVEPKSCDKTHTCPPCPAPEYQWGPMVFLFPPKPKDTLMISRTPEVTCVVVDVSDEEPEVKFNWYVDGVEVHNAKTKPREEQYNATYRVVSVLTVLHQDWLNGKEYKCKVSNKALPAPIEKTISKAKGQPREPQVCTLPPSRDELTKNQVSLWCLVKGFYPSDIAVEWESNGQPENNYKTTPPVLDSDGSFFLYSKLTVDKSRWQQGNVFSCSVMHEALHNHYTQKSLSLSP
light: DIQMTQSPSSLSASVGDRVTITCRASQDIHKYIAWYQQKPGQAPRLLIQYTSTLQPGVPSRFSGSGSGTDYTFTISSLQPEDIATYYCLQYEQLRTFGGGTKVEIKRTVAAPSVFIFPPSDEQLKSGTASVVCLLNNFYPREAKVQWKVDNALQSGNSQESVTEQDSKDSTYSLSSTLTLSKADYEKHKVYACEVTHQGLSSPVTKSFNRGEC
notes: heterodimerized anti-EREG antibody: altered H240-Hl076 chain (Gly/Ser peptide in loop) with H240-Kn125 and L73-k0; also called Hl076-L3-3
B4: HI076-L3-6 (antibody, human IgG1, kappa)
heavy 1: QDQLVQSGAEVKKPGASVKVSCKASGFNIKDTYIQWVRQAPGQGLEWMGRIDPLRKQTKYREKFEGRVTITADTSTNTAYMELSSLRSEDTAVYYCVRSGREFDYWGQGTLVTVSSASTKGPSVFPLAPSSKSTSGGTAALGCLVKDYFPEPVTVSWNSGALTSGVHTFPAVLQSSGLYSLSSVVTVPSSSLGTQTYICNVNHKPSNTKVDKKVEPKSCDKTHTCPPCPAPELLGGPSVFLFPPKPKDTLMISRTPEVTCVVVDVSHEEPEVKFNWYVDGVEVHNAKTKPREEQYNSTGGSGGSYRVVSVLTVLHQDWLNGKEYKCKVSNDALPMPIEETISKAKGQPREPQVYTLPPSRCELTKNQVSLSCAVKGFYPSDIAVEWESNGQPENNYKTTPPVLDSDGSFFLVSKLTVDKSRWQQGNVFSCSVMHEALHNHYTQKSLSLSP
heavy 2: QDQLVQSGAEVKKPGASVKVSCKASGFNIKDTYIQWVRQAPGQGLEWMGRIDPLRKQTKYREKFEGRVTITADTSTNTAYMELSSLRSEDTAVYYCVRSGREFDYWGQGTLVTVSSASTKGPSVFPLAPSSKSTSGGTAALGCLVKDYFPEPVTVSWNSGALTSGVHTFPAVLQSSGLYSLSSVVTVPSSSLGTQTYICNVNHKPSNTKVDKKVEPKSCDKTHTCPPCPAPEYQWGPMVFLFPPKPKDTLMISRTPEVTCVVVDVSDEEPEVKFNWYVDGVEVHNAKTKPREEQYNATYRVVSVLTVLHQDWLNGKEYKCKVSNKALPAPIEKTISKAKGQPREPQVCTLPPSRDELTKNQVSLWCLVKGFYPSDIAVEWESNGQPENNYKTTPPVLDSDGSFFLYSKLTVDKSRWQQGNVFSCSVMHEALHNHYTQKSLSLSP
light: DIQMTQSPSSLSASVGDRVTITCRASQDIHKYIAWYQQKPGQAPRLLIQYTSTLQPGVPSRFSGSGSGTDYTFTISSLQPEDIATYYCLQYEQLRTFGGGTKVEIKRTVAAPSVFIFPPSDEQLKSGTASVVCLLNNFYPREAKVQWKVDNALQSGNSQESVTEQDSKDSTYSLSSTLTLSKADYEKHKVYACEVTHQGLSSPVTKSFNRGEC
notes: heterodimerized anti-EREG antibody: altered H240-Hl076 chain (Gly/Ser peptide in loop) with H240-Kn125 and L73-k0; also called Hl076-L3-6
B5: HI076-L3-9 (antibody, human IgG1, kappa)
heavy 1: QDQLVQSGAEVKKPGASVKVSCKASGFNIKDTYIQWVRQAPGQGLEWMGRIDPLRKQTKYREKFEGRVTITADTSTNTAYMELSSLRSEDTAVYYCVRSGREFDYWGQGTLVTVSSASTKGPSVFPLAPSSKSTSGGTAALGCLVKDYFPEPVTVSWNSGALTSGVHTFPAVLQSSGLYSLSSVVTVPSSSLGTQTYICNVNHKPSNTKVDKKVEPKSCDKTHTCPPCPAPELLGGPSVFLFPPKPKDTLMISRTPEVTCVVVDVSHEEPEVKFNWYVDGVEVHNAKTKPREEQYNSTGGSGGSGGSYRVVSVLTVLHQDWLNGKEYKCKVSNDALPMPIEETISKAKGQPREPQVYTLPPSRCELTKNQVSLSCAVKGFYPSDIAVEWESNGQPENNYKTTPPVLDSDGSFFLVSKLTVDKSRWQQGNVFSCSVMHEALHNHYTQKSLSLSP
heavy 2: QDQLVQSGAEVKKPGASVKVSCKASGFNIKDTYIQWVRQAPGQGLEWMGRIDPLRKQTKYREKFEGRVTITADTSTNTAYMELSSLRSEDTAVYYCVRSGREFDYWGQGTLVTVSSASTKGPSVFPLAPSSKSTSGGTAALGCLVKDYFPEPVTVSWNSGALTSGVHTFPAVLQSSGLYSLSSVVTVPSSSLGTQTYICNVNHKPSNTKVDKKVEPKSCDKTHTCPPCPAPEYQWGPMVFLFPPKPKDTLMISRTPEVTCVVVDVSDEEPEVKFNWYVDGVEVHNAKTKPREEQYNATYRVVSVLTVLHQDWLNGKEYKCKVSNKALPAPIEKTISKAKGQPREPQVCTLPPSRDELTKNQVSLWCLVKGFYPSDIAVEWESNGQPENNYKTTPPVLDSDGSFFLYSKLTVDKSRWQQGNVFSCSVMHEALHNHYTQKSLSLSP
light: DIQMTQSPSSLSASVGDRVTITCRASQDIHKYIAWYQQKPGQAPRLLIQYTSTLQPGVPSRFSGSGSGTDYTFTISSLQPEDIATYYCLQYEQLRTFGGGTKVEIKRTVAAPSVFIFPPSDEQLKSGTASVVCLLNNFYPREAKVQWKVDNALQSGNSQESVTEQDSKDSTYSLSSTLTLSKADYEKHKVYACEVTHQGLSSPVTKSFNRGEC
notes: heterodimerized anti-EREG antibody: altered H240-Hl076 chain (Gly/Ser peptide in loop) with H240-Kn125 and L73-k0; also called Hl076-L3-9

In the assay the target is T1, FcγRIIIaV (human, UniProt P08637 17-208).
T1 construct: extracellular domain
T1 sequence (P08637 other isoform, or with tags, fused parts or gaps): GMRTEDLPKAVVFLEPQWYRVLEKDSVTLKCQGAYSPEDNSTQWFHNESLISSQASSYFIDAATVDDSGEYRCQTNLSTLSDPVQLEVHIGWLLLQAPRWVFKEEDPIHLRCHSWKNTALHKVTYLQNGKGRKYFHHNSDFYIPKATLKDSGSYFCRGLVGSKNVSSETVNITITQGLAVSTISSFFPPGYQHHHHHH
Kind of assay: SPR (Biacore), antibody captured, FcγR as analyte, 1:1 Langmuir fit.
With B1, the equilibrium dissociation constant (Kd) (commonly the free concentration of one partner at which half of the binding sites on the other are occupied at equilibrium, for simple one-to-one binding) turned out to be 2.3 nM. As for B2, the equilibrium dissociation constant (Kd) amounted to 2.4 nM.

The molecule B3 displayed a dissociation constant Kd of 2.9 nM. B4 returned a Kd of 7.2 nM. B5 returned a Kd of 7.3 nM.
